According to paper PMC10833452 (Protein & Cell, 2023):

biological target: T1, SARS-CoV-2 wild-type spike protein ectodomain, prefusion-stabilized trimer (WT-S) (SARS-CoV-2 prototype (MN908947), UniProt P0DTC2, proline substitution at 986 | proline substitution at 987 | GSAS substitution …); assay: cryo-EM structure; conditions: both partners purified

Binder | binding result
VacW-209 Fab (Fab, V domains shown) VH: QVQLVESGGGVVQPGRSLRLSCAASGFTFSSIAMHWVRQAPGKGLEWVAVMSFDGSIKYYGDSVKGRFTISRDNSKSTLYLQMNSLRAEDTAVYYCARGVQGYYDRSGYYNLDYNYGMDVWGQGTTVTVSS VL: QSVLTQPPSVSGAPGQRVTISCTGSSSNIGAGYDVHWYQQLPGTAPKLLIYGNSNRPSGVPDRFSGSKSGTSASLAITGLQAEDEADYYCQSYDSSLSGWVFGGGTKLTVL | binds
S2E12 Fab (Fab, V domains shown) VH: not shown VL: DIVLTQTPGTLSLSPGERATLSCRASQSVSSSYLAWYQQKPGQAPRLLIYGASSRATGIPDRFSGSGSGTDFTLTISRLEPEDFAVYYCQQYVGLTGWTFGQGTKVEIK | binds
S2X35 Fab (Fab, V domains shown) VH: QVQLVQSGAEVKKPGASVKVSCKASGYTFTNYGISWVRQAPGQGLEWMGWISAYKGNTNYAQKLQGRVTMTTDTSTSTAYMELRSLRSDDTAVYYCARPDYQVLGYDFWIGYYGMDVWGQGTTVIVSS VL: QSVLTQPPSVSGAPGQRVTISCTGSSSNIGAGYDVHWYQQLPGTAPKLLIYGNTNRPSGVPDRFSGSKSGTSASLAITGLQAEDEADYYCQSYDSSLSGSEVVFGGGTKLTVL | binds

biological target: T1, SARS-CoV-2 wild-type spike protein …; assay: SPR; conditions: both partners purified

Binder | binding result
8H12 monoclonal antibody (mouse IgG) (antibody, V domains shown) VH: EVKLEESGGGLVQPGGSMKLSCAASGFTFSDAWMDWVRQSPEKGLEWVAQIRRKANNHATYYAESVKGRFTISRDDSKSSVYLQMNSLRAEDTGIYYCIRGMTYAMDFWGQGTSVTVSS VL: DIVMTQFQKFMSTSVGDRVSITCKASQNVRTAVAWYQQKPGQSPKAMIYLASNRHRGVPDRFTGSGCGTDFTLTISNVQCEDLADYFCLQHRNYPLTFGGGTKLEIK | binds
VacW-209 recombinant antibody (human IgG constant region) (antibody, V domains shown) VH: QVQLVESGGGVVQPGRSLRLSCAASGFTFSSIAMHWVRQAPGKGLEWVAVMSFDGSIKYYGDSVKGRFTISRDNSKSTLYLQMNSLRAEDTAVYYCARGVQGYYDRSGYYNLDYNYGMDVWGQGTTVTVSS VL: QSVLTQPPSVSGAPGQRVTISCTGSSSNIGAGYDVHWYQQLPGTAPKLLIYGNSNRPSGVPDRFSGSKSGTSASLAITGLQAEDEADYYCQSYDSSLSGWVFGGGTKLTVL | binds
S2E12 recombinant antibody (human IgG constant region) (antibody, V domains shown) VH: not shown VL: DIVLTQTPGTLSLSPGERATLSCRASQSVSSSYLAWYQQKPGQAPRLLIYGASSRATGIPDRFSGSGSGTDFTLTISRLEPEDFAVYYCQQYVGLTGWTFGQGTKVEIK | binds
S2X35 recombinant antibody (human IgG constant region) (antibody, V domains shown) VH: QVQLVQSGAEVKKPGASVKVSCKASGYTFTNYGISWVRQAPGQGLEWMGWISAYKGNTNYAQKLQGRVTMTTDTSTSTAYMELRSLRSDDTAVYYCARPDYQVLGYDFWIGYYGMDVWGQGTTVIVSS VL: QSVLTQPPSVSGAPGQRVTISCTGSSSNIGAGYDVHWYQQLPGTAPKLLIYGNTNRPSGVPDRFSGSKSGTSASLAITGLQAEDEADYYCQSYDSSLSGSEVVFGGGTKLTVL | binds
